Data as given in patent publication US20250188185A1 (KOREA UNIVERSITY RESEARCH AND BUSINESS FOUNDATION, published 2025).
Substitutions are numbered along the chain they refer to.

B1: rituximab Fc variant RTX-PS101 (antibody, human IgG1, kappa)
heavy: QVQLQQPGAELVKPGASVKMSCKASGYTFTSYNMHWVKQTPGRGLEWIGAIYPGNGDTSYNQKFKGKATLTADKSSSTAYMQLSSLTSEDSAVYYCARSTYYGGDWYFNVWGAGTTVTVSAASTKGPSVFPLAPSSKSTSGGTAALGCLVKDYFPEPVTVSWNSGALTSGVHTFPAVLQSSGLYSLSSVVTVPSSSLGTQTYICNVNHKPSNTKVDKKAEPKSCDKTHTCPPCPAPELLGGPSVFLLPPKIKDTLMISRTPEVTCVVVDVSHEDPEVKFNWYVDGVEVHNAKTKPPEEQYNSTLRVVSILTVLHQDWLNGKEYKCKVSNKALPLPEEKTISKQKGQPREPQVYTLPPSRDELTKNQVSLTCLVKGFYPSDIAVEWESNGQQENNYKTTPPVLDSDGSFFLYSKLTVDKSRWQQGNVFSCSVMHEALHNHYTQKSLSLSPGK
light: QIVLSQSPAILSASPGEKVTMTCRASSSVSYIHWFQQKPGSSPKPWIYATSNLASGVPVRFSGSGSGTSYSLTISRVEAEDAATYYCQQWTSNPPTFGGGTKLEIKRTVAAPSVFIFPPSDEQLKSGTASVVCLLNNFYPREAKVQWKVDNALQSGNSQESVTEQDSKDSTYSLSSTLTLSKADYEKHKVYACEVTHQGLSSPVTKSFNRGEC
B2: rituximab Fc variant RTX-PS102 (antibody)
heavy: B1 heavy with H228R, V307I
light: B1 light
B3: rituximab Fc variant RTX-PS107 (antibody, human IgG1, kappa)
heavy: B1 heavy with D360G
light: B1 light

How the values were obtained:
[1] = biological target: T1, cynomolgus monkey FcγRIII-GST (cynomolgus monkey, UniProt Q8SPW2 17-208); assay: ELISA, cynomolgus monkey FcγRIII-GST coated at 4 µg/ml, antibody titrated, HRP-Protein L detection
T1 construct: GST fusion form made in Expi293F cells, purified on glutathione resin; not shown: GST fusion partner
T1 sequence (Q8SPW2 17-208): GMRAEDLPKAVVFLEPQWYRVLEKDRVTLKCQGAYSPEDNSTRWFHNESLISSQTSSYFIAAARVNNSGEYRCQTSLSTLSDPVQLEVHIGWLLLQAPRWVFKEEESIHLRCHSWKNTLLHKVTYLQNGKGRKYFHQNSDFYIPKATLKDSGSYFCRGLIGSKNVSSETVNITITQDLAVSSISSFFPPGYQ
Procedure: Specifically, 50 μl of mouse FcγRIV-GST and cynomolgus monkey FcγRIII-GST diluted to 4 μg/ml in 0.05 M Na₂CO₃ pH 9.6 were immobilized on a flat bottom polystyrene high bind 96-well plate (Costar, 3590) for 16 hours at 4° C., respectively, and then blocked with 100 μl of 4% skim milk (GenomicBase, SKI400) at room temperature for 2 hours. […] After washing, antibody reaction was performed for 1 hour at room temperature, and then washed using 50 μl of HRP-Protein L (GenScript, M00098). 50 μl of a 1-Step Ultra TMB-ELISA substrate solution (Thermo Fisher Scientific, 34028) was added to develop color, and then added with 50 μl each of 2 M H₂SO₄ to terminate the reaction. Absorbance was measured using an Epoch microplate spectrophotometer (BioTek).

FcγRIIIa-158F-GST = biological target: T2, FcγRIIIa-158F-GST (human, UniProt P08637 17-208); assay: ELISA, FcγRIIIa-158F-GST coated at 4 µg/ml, antibody titrated, HRP-Protein L detection
T2 construct: not shown: GST (glutathione S-transferase) fusion partner
T2 sequence (P08637 17-208): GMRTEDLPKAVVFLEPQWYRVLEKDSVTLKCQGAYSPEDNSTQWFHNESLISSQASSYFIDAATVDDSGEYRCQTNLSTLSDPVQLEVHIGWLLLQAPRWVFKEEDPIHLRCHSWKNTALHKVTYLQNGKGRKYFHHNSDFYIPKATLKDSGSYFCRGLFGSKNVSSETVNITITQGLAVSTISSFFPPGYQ
Procedure: After washing, antibody reaction was performed for 1 hour at room temperature, and then washed using 50 μl of HRP-Protein L (GenScript, M00098). 50 μl of a 1-Step Ultra TMB-ELISA substrate solution (Thermo Fisher Scientific, 34028) was added to develop color, and then added with 50 μl each of 2 M H₂SO₄ to terminate the reaction. Absorbance was measured using an Epoch microplate spectrophotometer (BioTek).

| Binder | EC50 (read off the curve) [1] | EC50 (read off the curve) (FcγRIIIa-158F-GST) |
| --- | --- | --- |
| B1 | ~3 nM | ~3 nM |
| B2 | ~3 nM | – |
| B3 | ~3 nM | ~3 nM |
